This note sets out measurements from publication PMC4772976 (EMBO Reports, 2016).

This assay concerns the target His-Ub (UniProt P0CG48 1-76). Put plainly: pull-down.

B1: GST-NAT10 RFL (RING finger-like, residues 456-558) (domain or fragment)
chain: SARTLYEVSLQESIRYAPGDAVEKWLNDLLCLDCLNITRIVSGCPLPEACELYYVNRDTLFCYHKASEVFLQRLMALYVASHYKNSPNDLQMLSDAPAHHLFC
On to B1, for which the binding result is on record as “binds”.
